Earlier results as cited in patent US20240173301A1, “2-IMINOBIOTIN FOR USE IN THE TREATMENT OF STROKE” (NEUROPHYXIA B.V., priority 2021, published 2024).

Conditions: acute ischemic stroke, intravenous thrombolysis

B1: Alteplase (protein, UniProt P00750 36-562, looked up)
Tissue-type plasminogen …: SYQVICRDEKTQMIYQQHQSWLRPVLRSNRVEYCWCNSGRAQCHSVPVKSCSEPRCFNGGTCQQALYFSDFVCQCPEGFAGKCCEIDTRATCYEDQGISYRGTWSTAESGAECTNWNSSALAQKPYSGRRPDAIRLGLGNHNYCRNPDRDSKPWCYVFKAGKYSSEFCSTPACSEGNSDCYFGNGSAYRGTHSLTESGASCLPWNSMILIGKVYTAQNPSAQALGLGKHNYCRNPDGDAKPWCHVLKNRRLTWEYCDVPSCSTCGLRQYSQPQFRIKGGLFADIASHPWQAAIFAKHRRSPGERFLCGGILISSCWILSAAHCFQERFPPHHLTVILGRTYRVVPGEEEQKFEVEKYIVHKEFDDDTYDNDIALLQLKSDSSRCAQESSVVRTVCLPPADLQLPDWTECELSGYGKHEALSPFYSERLKEAHVRLYPSSRCTSQHLLNRTVTDNMLCAGDTRSGGPQANLHDACQGDSGGPLVCLNDGRMTLVGIISWGLGCGQKDVPGVYTKVTNYLDWIRDNMRP
notes: fibrinolytic drug
risk of a poor outcome: reduced the risk of a poor outcome
